Numbering of substitutions follows the chain as printed. Read-outs that look alike come from different tables or passages of the source.

The target in assay [1] is T1, Baboon EL-C2 tag (baboon, UniProt Q9Y5X9 21-500 (human entry), limits assumed).
T1 chain: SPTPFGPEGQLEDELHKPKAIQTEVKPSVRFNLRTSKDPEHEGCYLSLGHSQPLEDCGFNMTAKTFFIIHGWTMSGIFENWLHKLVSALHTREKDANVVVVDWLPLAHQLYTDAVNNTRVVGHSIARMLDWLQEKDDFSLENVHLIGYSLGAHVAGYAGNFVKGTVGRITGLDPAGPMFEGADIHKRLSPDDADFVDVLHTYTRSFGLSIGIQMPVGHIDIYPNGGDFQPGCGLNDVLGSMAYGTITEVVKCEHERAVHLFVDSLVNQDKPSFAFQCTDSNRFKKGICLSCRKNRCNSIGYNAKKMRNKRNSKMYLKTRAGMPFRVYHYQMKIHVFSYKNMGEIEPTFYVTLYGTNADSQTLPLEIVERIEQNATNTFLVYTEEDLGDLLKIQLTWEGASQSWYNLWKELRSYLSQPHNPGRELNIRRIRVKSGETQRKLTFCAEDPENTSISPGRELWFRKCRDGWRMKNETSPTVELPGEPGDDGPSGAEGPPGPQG
Put plainly: cell-based or functional assay.

For assay [2], the target named is T2, cynomolgus monkey EL-C2 tag (cynomolgus monkey, UniProt Q9Y5X9 21-500 (human entry), limits assumed).
T2 chain: T1 chain with E12A, E141G
Put plainly: cell-based or functional assay.

The target in assay [3] is T3, human EL[331-459]-mouse EL-C2 tag (human/mouse chimera, UniProt Q9WVG5 21-500 (mouse entry)).
T3 chain: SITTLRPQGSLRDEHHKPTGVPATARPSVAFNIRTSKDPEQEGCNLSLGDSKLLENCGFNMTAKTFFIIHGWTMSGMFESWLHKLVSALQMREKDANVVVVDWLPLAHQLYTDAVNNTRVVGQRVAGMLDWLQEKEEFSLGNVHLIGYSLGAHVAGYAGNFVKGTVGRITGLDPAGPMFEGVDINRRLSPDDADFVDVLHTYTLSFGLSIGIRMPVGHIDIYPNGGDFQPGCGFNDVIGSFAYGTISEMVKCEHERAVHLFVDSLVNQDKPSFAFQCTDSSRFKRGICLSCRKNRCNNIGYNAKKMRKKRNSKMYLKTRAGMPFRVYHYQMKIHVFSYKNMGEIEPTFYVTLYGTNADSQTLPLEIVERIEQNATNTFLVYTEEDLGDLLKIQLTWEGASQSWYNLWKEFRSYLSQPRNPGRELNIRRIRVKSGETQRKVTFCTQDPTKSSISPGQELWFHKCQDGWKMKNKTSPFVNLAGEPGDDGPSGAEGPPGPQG
Nature of the assay: cell-based or functional assay.

Assay [4] has as its target T4, rabbit EL-C2 tag (rabbit).
T4 chain: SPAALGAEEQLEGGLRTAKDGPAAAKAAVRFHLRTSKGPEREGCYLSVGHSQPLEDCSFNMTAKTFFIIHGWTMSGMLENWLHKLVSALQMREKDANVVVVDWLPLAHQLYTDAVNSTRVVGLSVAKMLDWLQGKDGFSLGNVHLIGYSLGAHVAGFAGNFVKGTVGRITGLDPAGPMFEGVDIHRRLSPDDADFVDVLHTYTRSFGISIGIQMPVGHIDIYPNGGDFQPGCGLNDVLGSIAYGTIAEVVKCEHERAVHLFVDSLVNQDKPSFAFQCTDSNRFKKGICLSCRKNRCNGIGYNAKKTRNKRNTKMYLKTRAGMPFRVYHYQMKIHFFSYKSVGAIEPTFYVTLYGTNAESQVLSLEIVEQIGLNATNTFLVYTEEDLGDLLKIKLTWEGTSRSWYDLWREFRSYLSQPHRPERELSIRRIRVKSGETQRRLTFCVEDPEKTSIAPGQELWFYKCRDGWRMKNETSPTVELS
Put plainly: cell-based or functional assay.

The target of assay [5] is T5, human EL-411-459 fragment (human).
T5 construct: Used as HEK293 lysate
T5 chain: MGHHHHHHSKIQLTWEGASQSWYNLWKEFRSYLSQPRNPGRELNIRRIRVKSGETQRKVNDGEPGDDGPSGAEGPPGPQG
Put plainly: sandwich ELISA with human EL fragment lysate, as Example 10.

For assay [6], the target named is T1, Baboon EL-C2 tag. Nature of the assay: ELISA-type titration, A450 against antibody concentration; protocol not described in the text.
The target of assay [7] is T2, cynomolgus monkey EL-C2 tag. The description is as above.
The target of assay [8] is T3, human EL[331-459]-mouse EL-C2 tag. Described as above.
Assay [9] concerns the target T4, rabbit EL-C2 tag. The description is as above.
Assay [10] concerns the target T1, Baboon EL-C2 tag. Put plainly: Biacore SPR; EL heparin extract captured by anti-C2-tag antibody on CM5, antibody as analyte, bivalent fit. Here is the method:
(§1) The binding affinities of anti-EL antibodies were measured using Biacore. Anti-C2-tag antibody was immobilized on a sensor chip CM5 (GE HealthCare) using amine-coupling and baboon EL heparin extract or cynomolgus monkey heparin extract diluted with HBS-P (GE Healthcare) was added and EL were captured on the sensor chip. Then anti-EL antibodies diluted with HBS-P were added and the binding affinities were calculated by bivalent fitting of BIAevaluation software (FIG. 9A-G).

Assay [11] addresses T2, cynomolgus monkey EL-C2 tag. The description is as above. On the procedure:
as §1

Assay [12] has as its target T1, Baboon EL-C2 tag. Put plainly: Biacore SPR; EL captured by anti-C2-tag antibody, antibody as analyte, bivalent fit; column head prints nM, kd/ka gives M. Here is the method:
as §1

Assay [13] concerns the target T2, cynomolgus monkey EL-C2 tag. The assay is described as above. Here is the method: as §1
Assay [14] has the same target. Put plainly: ELISA-type titration, A450 against antibody concentration; protocol not described in the text.

B1: 3B1 antibody (antibody, IgG1, V domains shown)
VH: QVTLKESGPGILQPSQTLSLTCSFSGFSLSTSGVGVGWIRQPSGKGLEWLAHIWWNDNKYYNTALKSRLTISKDTSNNQVFLKIASVDTADTATYFCARSYDGYPFDYWGQGTLVTVSA
VL: DIQMTQSPSSLSASLGGKVTITCKASQDINKYIVWYQHKPGKGPRLLIHHTSTLQPGIPSRFSESGSGRDYSFSISNLEPEDIASYYCLQYDTLLWTFGGGTKLEIR
As to B1, the “Neutralizing activity_IC50” value was 6.6 nM in assay [1], 6.2 nM in assay [2], 18 nM in assay [3] and 207 nM in assay [4]. Further, the binding result in assay [5] was “binds”. In addition, the “EC50 (read off the curve)” value in [6] is around 0.02 µg/mL; in [7] it was around 0.006 µg/mL; in [8], around 0.03 µg/mL; in assay [9] it was around 0.02 µg/mL. Moreover, the off-rate (koff) in [10] was found to be 0.00014 s⁻¹; in assay [11] it was 9.9e-05 s⁻¹. The results for the on-rate (kon) in [10] and in assay [11] were 93000 M⁻¹ s⁻¹ and 180000 M⁻¹ s⁻¹, respectively. Further, the values for the Kd in [12] and in assay [13] were 1.5 nM and 0.55 nM, respectively.

B2: 41H8 antibody (antibody, IgG1, V domains shown)
VH: QVTLKESGPGILQPSQTLSLTCSFSGFSLSTYGMGVGWIRQPSGKGLEWLAHIWWNENKYYNTDLKSRLTISKDTSNNQVFLKIASVDTADTATYYCARIGPGVPFDYWGQGTTITVSS
VL: B1 VL with Y32F, V34A, H50Y, S63N, E64G, S74T, S85T, T93I, L95T, R107K
Take B2: the “Neutralizing activity_IC50” value worked out at 7.2 nM in assay [1], 5.9 nM in [2], 15 nM in [3] and 391 nM in assay [4]. In addition, the binding result in assay [5] is reported as “no binding”. The “EC50 (read off the curve)” value in assay [14] was around 0.007 µg/mL. Moreover, the koff was 0.00029 s⁻¹ in [10] and 0.0001 s⁻¹ in assay [11]. In addition, the association rate constant (kon) in assay [10] came to 110000 M⁻¹ s⁻¹; in assay [11], 160000 M⁻¹ s⁻¹. Further, the values for the Kd in assay [12] and in assay [13] were 2.6 nM and 0.63 nM, respectively.

The record behind these values is patent publication US20150025225A1 (SHIONOGI, published 2015).
